Target: SARS-CoV-2 S2 subunit ectodomain (S2-ECD, 686–1213 aa) (SARS-CoV-2 Wuhan, UniProt P0DTC2)
Test: ELISA
Details: both partners purified

B1: anti-S2 monoclonal antibody 4A5 (antibody, V domains shown)
VH: QVKLEQSGPGILQPSQTLSLTCSFSGFSLSTSGMGVSWIRQSSGKGLEWLTHIYWDDDKRYNPSLKSRLTISKDTSRNQVFLKITSVDTADTATYYCARRRMITGLYYAMDYWGQGTSVTVSS
VL: DIVMTQSTLSLPVSFGDQVSISCRSSQSLANSYGITYLSWYLHKPGQSPQLLIYGISNRFSGVPDRFSGSGSGTDFTLKISTIKPEDLGMYYCLQGTHQPWTFGGGTKLEIK
  binding result: binds
